Data taken from the DeepSol protein solubility set.

Test: soluble on expression in E. coli; label from the status in PepcDB or PDB records

Sequence: MSEKLKIVYRPLQELSPYAHNARTHSTEQVAQLVESIKQFGWTNPVLIDEKGEIIAGHGRVMAAEMLKMDSVPVIVLSGLTDEQKQR
- soluble on expression in E. coli: soluble

Sequence: GMNNLYHLKVRCSSLHKIIGEPKSKADKEAGKLTDTAKSAVREMAKFDLFGYNAFEGNKYTQKGNELEEQAIKLSGVTRGLALKKNTERRENEFITGECDIYVPSRKLIIDTKCSWDIGSHPFFTDEAQEKAKKAGYDIQMQGYMWLWDCDQAQIDFVLFPTPLNLISAYDSDFKLIDLVEQIPQIRRITTVIIQRDNELIDKIKERVSAAQKYYDQLISEMS
- soluble on expression in E. coli: soluble

Sequence: MSLPFITKISTQKKNTERFNIFLDDKYAFSVDADVLVKFELKKGKELDDLDIIEIQYGDEVKKGFNRALDFLSYRMRSTKEVEDHLKKKETSPPVIAEVIHRLNDYKYLNDQEFAAAYVSTHKKTNGKGPDVLFRELRAKGIDDDTIKEALSSFSFEDQTREAVKHVEKLLKKDKKLSTKELKQRAQLQLQRKGFSFDVISAAMDQIEYENDEDTEKEALRLHAEKAFRKYRYDGSYESAMKVKQFLFRKGFSLDLIEQLLQEEEYEGHHHHHH
- soluble on expression in E. coli: soluble

Sequence: ANQLRELKQTHTYTVFGYTDGGFAVISADDLAPELLGVSESNFVETDNPSFKWWLKAIDEVITNAVKSNKPLNVIKPDPSKYAAEVSTLLTTTWGQQMPYNKLLPKTKKGRLITGAVATATAQVLNYFKYPVRGIGSHTVHYPANDPSGVAISADFGNTTYDWANMKDNYSGNYTEAEANAVATLMLHCGVASEMQYGGPNEGSGAYMTDCAAGLRTYFGFTDAEYITRANYTDEQWMDIVFSELTKGHPLIYGGVSPGSMGQDAGHAFVIDGYNKAGLVSVNWGWNGDVDGYYKIDLLNPGNMYSFTAEQDMVRGVYGKP
- soluble on expression in E. coli: soluble

Sequence: MYEAHFGLKQLPFTLTPNTSLFHGLSPHYEAIHTVLSAISMGEGIIKVTGEVGTGKTLVCRMLINELPSNVELLYLPNPVMNGHELRQALAKELWLDQSGDDIALIDRIHEKIIDLHAEGKLVVVFIDEAQALSDEALETLRLFGNLETDYKKLLQIVLFGQPELDERLQQHNLRQLRQRITFSALLRALNMNETVAYIRYRIAESGCENNPFSLVQMKAIWKATNGIPRLINQVCHKSLLIAFSEQVNNVPSKAVFNAIIDTADTVKPKHYFPTFWGWRVSLEHHHHHH
- soluble on expression in E. coli: soluble

Sequence: MKLSLRQLQIFCAVAQHGSTTSAAISVSLSQSATSAALNELESALDTRLFDRVGKRLVLNDNGHALLPQARRMLENAQQIEASFLPGHAGLKTRLRVGCSTTIGNYVLPLILGELRQSTPHLRVDVDMANSMAIARRVADFEIDMGLIEGPCHLPELSAEPWLIDELLIAAGQRHPLALKQQVTLDDLRTAEWLLREPGSGTREEVEQLLLRHLHDLAETRQIGSSEAIKHTLAQGIGISCLSRWVVRDLLASEVLVELPHALPALTRRFFLIRHRDKYISPGLERFWEKCSQFVSQE
- soluble on expression in E. coli: not soluble

Sequence: AQGRQPRTETLHAERRAAGAWLAKRMGLEDSAPVYFLQRRRWVDERPVLIELIALDAGWCPGLLDHDLDTSLMSLLRERFGLQPTRCQLAMHPTALNAAQAEPLQLAPGSPALYLERLSYAEGQRVVEFDQEFWRPDALEIVLDAAYPGA
- soluble on expression in E. coli: soluble

Sequence: MGHHHHHHSHDFIPRGAFGKVYLAQDIKTKKRMACKLIPVDQFKPSDVEIQACFRHENIAELYGAVLWGETVHLFMEAGEGGSVLEKLESCGPMREFEIIWVTKHVLKGLDFLHSKKVIHH
- soluble on expression in E. coli: not soluble

Sequence: MNNNEIYVSLDIGTSNVRIIIGEITDGSINIIGVGNAPSEGIKKGSIVDIDETVRSIRRAVEQAERMVGLSIRQVIVGVNGNHVQLQPCHGVVAVSSPDREIGDEDIARVIDAAQVVSIPPEREIIDVIPKQFIVDGLDEINDPRGMIGVRLEMEGTIITGSKTLLHNLLRCVERAGLEVADICLQALAAGSVAISKDEKSLGVCLIDIGGGSMTISCFEQGSLVDTSVIPVGGDHVTNDIAVGLRISTEEAIKIKHTHGHAYIDEASEEDRFEVKAIGSTEPEAFSQFELAHIIEPRMEEMFELINRELRRLGQHDFPGGFVLTGGSVMMPGVLELAKETLGRNVRVAIPDYIGVREPQYTTGVGLIQFAYKNVKIQGKEVAAAVAEAGVEQEQRPKKEKERSRTNEGPGVKSKVKNWFKVFLE
- soluble on expression in E. coli: not soluble

Sequence: SEVDINGDSRSTLTTLPLPVAEGSSPGKAEAEKPRCSSTPCSPMRRTVSGYQILHMDSNYLVGFTTGEELLKLAQKCTGGEDSKGEAMPALRAKQLDTGLARSSRLYKTRSRYYQPYEIPAVNGRRRRRMPSSGDKCTKPLPYEPYKALHGPLPLCLLKGKRAHSKSLDYLNLDKMNIKEPADTEVLQYQLQHLTLRGDRVFARNNT
- soluble on expression in E. coli: not soluble

Sequence: MGSDKIHHHHHHMDKFLYISMSGAKQNMNELALRANNLANANTDGFKSDMAQARSMQAFGEGLPTRVFAMVETPSANFRSGPIKSTGRDLDVAIKGDGWFAVQAQDGSEAYTRSGSLSFDSTGLLHNDRGNPVMGDAGPIVLPLPIEKVTISQDGIISVRPQGATTEVVEEVGRLKLVNPGNAQMMRGEDGLFRLVSGDPAPADPSVSVESGAVEGSNVNSVDEMVSLIDLQRQFELQVKMMKTAEENDRASSSLMRIS
- soluble on expression in E. coli: not soluble

Sequence: GMELQDTIFKRQSVRKFKNQDVSDEDILKMIKAAGAAPSGKNIQNWHFVVIKRRDLMEKIADVITKKQQEILVEMDKVSVDKANRFRKFVKNFTLFYLKAPVLVLVFTKVYNPSGYYELELIDAPKETIDKLFIRNPGMQSLGAAIENFTLSAIELGYGSCWLTSQNYAADEIEAVLEAETGFEKGEYFLGAMLALGVPEDNLKSPSKKPVEEICTFIK
- soluble on expression in E. coli: soluble

Sequence: MHHHHHHSSGVDLGTENLYFQSNAMSSKIFCKSWGAEYIAADVVRFRLWATGQQKVMLRLAGKDQEMQANGDGWFTLDVAGVTPGTEYNFVLSDGMVVPDPASRAQKTDVNGPSYVVDPGSYTWRNTGWKGSRWEQAVVYEMHTGTFTPEGTFRAAIAKLPYLAELGVTVIEVMPVAQFGGERGWGYDGVLLYAPHSAYGTPDDFKAFIDAAHGYGLSVVLDIVLNHFGPEGNYLPLLAPAFFHKERMTPWGNGIAYDVDAVRRYIIEAPLYWLTEYHLDGLRFDAIDQIEDSSARHVLVEIAQRIREDITDRPIHLTTEDSRNIISLHPRDQDGNAPLFTAEWNDDFHNAVHVFATGETQAYYNDFADAPEKHLARALAEGFAYQGEISPQTGEPRGVKSTGQPPVAFVDFIQNHDQVGNRAQGDRLITLAGAERTKVLLATLLLSPHIPLLFMGEEYGESRPFLFFTDFHGDLARAVREGRAKEFADHAGENVPDPNAPETFQRSKLNWKQQHSEEGKAWLAFTRELLLLRQKHIVPLLSAARESSGTVLQTAPGFIAVSWRFPGGTLSLALNISATTVLLPDLPGKTLFAWPNESTGSLSQHSLIVRLAQGESAS
- soluble on expression in E. coli: soluble

Sequence: MGSDKIHHHHHHMTTKDISRPVCILGLGLIGGSLLRDLHAANHSVFGYNRSRSGAKSAVDEGFDVSADLEATLQRAAAEDALIVLAVPMTAIDSLLDAVHTHAPNNGFTDVVSVKTAVYDAVKARNMQHRYVGSHPMAGTANSGWSASMDGLFKRAVWVVTFDQLFDGTDINSTWISIWKDVVQMALAVGAEVVPSRVGPHDAAAARVSHLTHILAETLAIVGDNGGALSLSLAAGSYRDSTRVAGTDPGLVRAMCESNAGPLVKALDEALAILHEAREGLTAEQPNIEQLADNGYRSRIRYEARSGQRRAKESVSPTITSSRPVLRLHPGTPNWEKQLIHAETLGARIEVF
- soluble on expression in E. coli: not soluble

Sequence: SPSAEERQKEERTAGLNETVPQATDGELPDDKLKGYELGRDEEKESHRQETLGNLYDYFEKKDETREQEISEEAASDGLHPIERSVSRYEETSQMVHSFYEPPAYDYEKEALREELDMIRSELATLKEEKEEEIDHLELLEKSYRMAAKYFPASGDANSRDAYTRSQERPADAPAPKTAVTAERAALPAVELLPEKKAIVSSLDQPMSDSAFIAEYGHKERNFGFRSADVPASSVTRNTLRVVVDRTTTLQHGDFVQLRLLESARLHDLSIPRHTRLMAQARIDGNRMKLHITSIEYGGRIVSVQLSAFDTDGQEGVFIPGSEEVSALKE
- soluble on expression in E. coli: not soluble

Sequence: MGSDKIHHHHHHMEQCNERPKVSVIIPVYNTCNYVQEALESICQQTLEELEIIVIDDGSTDCSRAIVEEIAIKDTRIQVYKQSNQGLSITRNQGLKFSTGEYIYFMDSDDFLEPDALELCYRKCTKEALDFVFFDAETFTIEPNIPESSFDYQRTLDLPEKICSGIDMLKTQLKTYKFKSSVCLNLFHREFICEERLSFYPGILHEDQLFMIQAYLHASKTGFIRRSFFHRRIRTNSIMTKKFTWKNMEGYLTVTNELLRELPIYPKTYHHTIFFFLRQMLDAAVWQAHTLSLPQRIKLFSLCLKYYRPYVTMRTLMVLLLKTSIHPRQ
- soluble on expression in E. coli: not soluble

Sequence: MGSDKIHHHHHHMGSKKLTVGSDSHRLSKSSFSSNKSSHSATKDQPIDTDDIDEDDESGHNIILNIISQLRPGCDLTRITLPTFILEKKSMLERVTNQLQFPEFLLQAHSEKDPLKRFLYVMKWYLAGWHIAPKAVKKPLNPVLGEYFTAYWDLPNKQQAYYISEQTSHHPPECAYFYMIPESSIRVDGVVIPKSRFLGNSSAAMMDGSTVLQFLDIKDGNGKPEKYVLTQPNVYVRGILFGKMRIELGDHMIIKSPNFQADIEFKTKGYVFGTYDAIEGTVKDYDGNAYYEISGKWNDVMYLKDLKQPRSSPKVFLDTHKESPLRPKVRPLSEQGEYESRKLWKKVTDALAVRNHPVATEEKFQIEDHQRQLAKKRIEDGVEFHPKLFRRSKPGEDLDYCIYKNIPVDEDPEKQIRSILQIAPILPGQQFTDKFFIPAFEKIKSQKKMIENEKQNPAKQ
- soluble on expression in E. coli: not soluble

Sequence: MAHHHHHHMLPRGEQHVSVAGSDDYMDDAASALLSELQQVVVRVSHQMVEERRRAAQQRKQIRALEAIVAEQDAMLDALRTQCDAAQCEKSRLLKSYQQELRWRGADPVQAARRSRDICGTSGTHVSAAQVDNVVQAEFRRLSTIYESCPFSGFDDVSPVVAAVLRSLATQVLQLRGAARNDEAEASDISKDAQPAPVQPHATSSSLRASARGTSTSSLMPAFNRSAPTDGHGKAGVVDRVTPLAALEKRKKASMFAAATAGPNHSPSETAGRTNGEEAELHRVDLDAGRNGDADAAACMASEASASVASSVCEDAASILSDIRARYGL
- soluble on expression in E. coli: not soluble

Sequence: KSYASTPELRKTWLDSMARIHVKNGDLSEAAMCYVHVTALVAEYLTRKGVFRQGCTAFRVITPNIDEEASMMEDVGMQDVHFNEDVLMELLEQCADGLWKAERYELIADIYKLIIPIYEKRRDFERLAHLYDTLHRAYSKVTEVMHSGRRLLGTYFRVAFFGQGFFEDEDGKEYIYKEPKLTPLSEISQRLLKLYSDKFGSENVKMIQDSGKVNPKDLDSKYAYIQVTHVIPFFDEKELQERKTEFERSHNIRRFMFEMPFTQTGKRQGGVEEQCKRRTILTAIHCFPYVKKRIPVMYQHHTDLNPIEVAIDEMSKKVAELRQLCSSAEVDMIKLQLKLQGSVSVQVNAGPLAYARAFLDDTNTKRYPDNKVKLLKEVFRQFVEACGQALAVNERLIKEDQLEYQEEMKANYREMAKELSEIMHEQLG
- soluble on expression in E. coli: soluble

Sequence: MGSDKIHHHHHHMDNLLSIKSLCDEDIDFVTEISRKEGFAPGVGDLRIYQNTDKQGLWVGWLDNNPIGCIAGVRYNQYYGFLGLFLVIEEYRGRGFGLQLWKKALSHLSDLPCVGLEAAPERITDYSKWGFTISSKTTRWQLLGDGKLVEEYSKNDDFDDFSFVEGSSIPQDAVKKFDEKRETTPRPHFLSNWLNHPAGKVIAVIDKKNCCHGFGRIRPCLLQNGDGWRIGPLMADTPMLLQILLKKLIESHPGLIIIDAPGLNKSASEVFRKLGFKSESETFRMYRGSQPPVSMNDVYGLACLELG
- soluble on expression in E. coli: not soluble
